For test [1], the target named is human αVβ3 integrin, purified (human) (UniProt P06756). Nature of the test: ELISA on αVβ3-coated plates, fifty percent maximal binding.
For test [2], the target named is αVβ5 integrin on human cells (human) (UniProt P06756). Nature of the test: binding of radiolabelled P1F6 to A375S2 cells, Bmax, n = 4.
For test [3] the target is unchanged. Nature of the test: binding of radiolabelled P1F6 to M21 cells, Bmax, n = 2.
Test [4] shares this target.
Test [5] shares this target. Nature of the test: binding of radiolabelled P1F6 to HT-29 cells, Bmax, n = 1.
Test [6] has the same target. This is another data set of the same source.
The target in test [7] is αvβ3 and αvβ5 integrins together on human cells (M21, A375S2, HUVEC) (human) (UniProt P06756).
Test [8] deals with αVβ3 integrin on human cells (human) (UniProt P06756).
For test [9] the target is unchanged. Put plainly: binding of radiolabelled LM609 to A375S2 cells, Bmax, n = 2.
Test [10] shares this target. This is another data set of the same source.
The target of test [11] is human αVβ3 integrin, purified (human) (UniProt P06756). Nature of the test: saturation binding on αvβ3 coated plate (ELISA), non-linear regression, n = 6. (In general: An ELISA detects its analyte on a solid surface through an enzyme-linked reagent.)

As usually defined, the EC50 is the concentration giving half of the maximal effect. Low values mean a more potent agent, high ones a less potent agent. In the case of c7E3 IgG (antibody), the EC50 in [1] stood at 0.07 µg/mL.

Consider P1F6 (antibody), for which the Receptors per cell (receptors per cell) in [2] stood at 70000; in test [3], 44000; in test [5], 73000. For the same substance, in test [4], the Adhesion (%) of A375S.2 cells to vitronectin (% of adhesion without antibody) is 28.5. Also, the Adhesion (%) of HUVEC to vitronectin (% of adhesion without antibody) in test [6] is 39.8.

Turning to “Human IgG (polyclonal serum or antibody)”, the Adhesion (%) of HUVEC to vitronectin (% of adhesion without antibody) in test [7] is 96.3.

For LM609 (antibody), in test [8], the Adhesion (%) of A375S.2 cells to fibrin (% of adhesion without antibody) was determined as 50, the Adhesion (%) of A375S.2 cells to fibrinogen (% of adhesion without antibody) worked out at 14, the Adhesion (%) of A375S.2 cells to gelatin (% of adhesion without antibody) amounted to 25.2 and the Adhesion (%) of A375S.2 cells to vitronectin (% of adhesion without antibody) turned out to be 42.1. Moreover, the Receptors per cell (receptors per cell) in test [9] was 300000. In [10], the Adhesion (%) of HUVEC to fibrin (% of adhesion without antibody) is 48.1, the Adhesion (%) of HUVEC to fibrinogen (% of adhesion without antibody) is 14.3, the Adhesion (%) of HUVEC to gelatin (% of adhesion without antibody) is 36.5 and the Adhesion (%) of HUVEC to vitronectin (% of adhesion without antibody) turned out to be 26.3.

The Kd is a measure of binding affinity in units of concentration. Lower therefore signals a tighter complex. As to ReoPro (Fab), the Kd in [11] stood at 0.25 nM.

Values taken from US20030040044A1.
